Article PMC9772228, “Structure of a RecT/Redβ family recombinase in complex with a duplex intermediate of DNA annealing”
Substitutions are numbered along the chain they refer to.

What was measured:
Assay in all cases: EMSA; little to no detectable; EMSA: PBS pH 7.4 (or KH2PO4/10 mM MgCl2 pH 6.0), 3.6 or 5 uM protein, 25 uM nt DNA, 37 C 15 min per strand, 0.8% agarose 1x TBE; cryo-EM: 20 mM KH2PO4 (Results: 10 mM), 10 mM MgCl2 pH 6.0, 37 C; native MS: 100 mM ammonium acetate pH 7, 37 C
Settings in all cases: protein: recombinant, tags: N-terminal 6His vector tag (20 aa) retained, chain copies: 10
LiRecT K111A/K215A = biological target: T1, LiRecT K111A/K215A (Listeria innocua CLIP 11262, UniProt Q92FL9 1-271, K111A;K215A)
T1 sequence: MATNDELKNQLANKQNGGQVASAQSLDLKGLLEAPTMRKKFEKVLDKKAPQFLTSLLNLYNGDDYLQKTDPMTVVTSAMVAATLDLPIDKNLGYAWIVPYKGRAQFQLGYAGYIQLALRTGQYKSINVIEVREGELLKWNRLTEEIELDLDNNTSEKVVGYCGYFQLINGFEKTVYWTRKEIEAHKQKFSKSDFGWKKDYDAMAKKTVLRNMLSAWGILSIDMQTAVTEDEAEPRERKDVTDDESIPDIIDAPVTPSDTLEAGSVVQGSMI

LiRecT R210A/K215A = biological target: T2, LiRecT R210A/K215A (Listeria innocua CLIP 11262, UniProt Q92FL9 1-271, R210A;K215A)
T2 sequence: T1 sequence with A111K, R210A

LiRecT K206E = biological target: T3, LiRecT K206E (Listeria innocua CLIP 11262, UniProt Q92FL9 1-271, K206E)
T3 sequence: T1 sequence with A111K, K206E, A215K

LiRecT K206A/R210A = biological target: T4, LiRecT K206A/R210A (Listeria innocua CLIP 11262, UniProt Q92FL9 1-271, K206A;R210A)
T4 sequence: T1 sequence with A111K, K206A, R210A, A215K

LiRecT K206A/K215A = biological target: T5, LiRecT K206A/K215A (Listeria innocua CLIP 11262, UniProt Q92FL9 1-271, K206A;K215A)
T5 sequence: T1 sequence with A111K, K206A

[1] = label: 5'-Cy3;5'-Cy5, 49 bp, 1 nt 5' overhang at each end

Measured: binding result

B1: Cy3-50mer (ssDNA)
DNA: GCGGATGGCTTAGAGCAGAATCGCCCTGCATAGCTCGATTTTTGCGGATG
no binding: LiRecT K111A/K215A; label: 5'-Cy3, single strand | LiRecT R210A/K215A; label: 5'-Cy3, single strand | LiRecT K206E; label: 5'-Cy3, single strand | LiRecT K206A/R210A; label: 5'-Cy3, single strand | LiRecT K206A/K215A; label: 5'-Cy3, single strand

B2: Cy5-50mer (ssDNA)
DNA: CCATCCGCAAAAATCGAGCTATGCAGGGCGATTCTGCTCTAAGCCATCCG
no binding: LiRecT K111A/K215A; label: 5'-Cy5, single strand | LiRecT R210A/K215A; label: 5'-Cy5, single strand | LiRecT K206E; label: 5'-Cy5, single strand | LiRecT K206A/R210A; label: 5'-Cy5, single strand | LiRecT K206A/K215A; label: 5'-Cy5, single strand

B3: 50-mer duplex intermediate (sequential addition) (dsDNA)
DNA 1: B1 DNA
DNA 2: B2 DNA
no binding: LiRecT K111A/K215A; [1] | LiRecT R210A/K215A; [1] | LiRecT K206E; [1] | LiRecT K206A/R210A; [1] | LiRecT K206A/K215A; [1]
